# Laboratory results as given in US20120316071A1.
# Tests used:
# [1] = biological target: rHuman Erythropoietin R/Fc Chimera, CF (R&D Systems Cat#963-ER) (human) (UniProt P19235); test: ECL multispot (MSD) binding assay, antigens spotted on plate, 20 nM Fab
# [2] = biological target: rHuman Notch-1/Fc Chimera, CF (R&D Systems Cat#3647-TK) (human) (UniProt P46531); test: as above
# [3] = biological target: rHuman P-Cadherin/Fc Chimera, CF (R&D Systems Cat#861-PC) (human) (UniProt P22223); test: as above
# [4] = biological target: rHuman HGF R/c-MET/Fc Chimera, CF (R&D Systems Cat#358-MT/CF) (human) (UniProt P08581); test: ECL multispot (MSD) binding assay, antigen spotted on plate, Fab 0.04 uM
# [5] = biological target: rHuman IGF-1 sR, CF (R&D Systems Cat#391-GR) (human) (UniProt P08069); test: as above
# [6] = biological target: rHuman Notch-1/Fc Chimera, CF (R&D Systems Cat#3647-TK) (human) (UniProt P46531); test: as above
# [7] = biological target: rHuman CD44/Fc Chimera, CF (R&D Systems Cat#3660-CD) (human) (UniProt P16070); test: as above
# [8] = biological target: rHuman Erythropoietin R/Fc Chimera, CF (R&D Systems Cat#963-ER) (human) (UniProt P19235); test: as above
# [9] = biological target: rHuman CD44/Fc Chimera, CF (R&D Systems Cat#3660-CD) (human) (UniProt P16070); test: MSD Multispot ECL, antigen spotted on plate, Fab in solution; blank spot of the row 240
# [10] = biological target: rHuman ErbB2/Fc Chimera, CF (R&D Systems Cat#1129-ER) (human) (UniProt P04626); test: as above
# [11] = biological target: rHuman IGF-1 sR, (IGF-1 sR), CF (R&D Systems Cat#391-GR) (human) (UniProt P08069); test: as above
# [12] = biological target: rHuman EGF R/Fc Chimera, CF (R&D Systems Cat#344-ER) (human) (UniProt P00533); test: ECL (MSD) multispot binding assay, antigen spotted on plate, 20 nM Fab
# [13] = biological target: rHuman ErbB2/Fc Chimera, CF (R&D Systems Cat#1129-ER) (human) (UniProt P04626); test: as above
# [14] = biological target: rHuman P-Cadherin/Fc Chimera, CF (human) (UniProt P22223); test: ECL Multispot (MSD) assay; antigen spotted on plate, Fab in solution
# [15] = biological target: human DLL4, full-length, expressed on the surface of CHO cells (human) (UniProt Q9NR61); test: cell-based or functional assay
# [16] = biological target: Recombinant Human DLL4 (R&D Systems Cat#1506-D4/CF) (human) (UniProt Q9NR61); test: ECL Multispot (MSD), antigen spotted, Fab
# [17] = biological target: rHuman HGF R/c-MET/Fc Chimera, CF (R&D Systems Cat#358-MT/CF) (human) (UniProt P08581); test: ECL Multispot (MSD), antigen spotted, Fab
# [18] = biological target: rHuman Notch-1/Fc Chimera, CF (R&D Systems Cat#3647-TK) (human) (UniProt P46531); test: ECL Multispot (MSD), antigen spotted, Fab
# [19] = biological target: rHuman IGF-1 sR, CF (R&D Systems Cat#391-GR) (human) (UniProt P08069); test: ECL Multispot (MSD), antigen spotted, Fab
# [20] = biological target: Recombinant Human DLL4 (R&D Systems Cat#1506-D4/CF) (human) (UniProt Q9NR61); test: ECL multispot (MSD), antigen spotted, Fab in solution
# [21] = biological target: rHuman CD44/Fc Chimera, CF (R&D Systems Cat#3660-CD) (human) (UniProt P16070); test: as above
# [22] = biological target: rHuman Erythropoietin R/Fc Chimera, CF (R&D Systems Cat#963-ER) (human) (UniProt P19235); test: as above
# [23] = biological target: rHuman HGF R/c-MET/Fc Chimera, CF (R&D Systems Cat#358-MT/CF) (human) (UniProt P08581); test: as above
# [24] = biological target: rHuman IGF-1 sR, CF (R&D Systems Cat#391-GR) (human) (UniProt P08069); test: as above
# [25] = biological target: rHuman Notch-1/Fc Chimera, CF (R&D Systems Cat#3647-TK) (human) (UniProt P46531); test: as above
# [26] = biological target: rHuman P-Cadherin/Fc Chimera, CF (R&D Systems Cat#861-PC) (human) (UniProt P22223); test: as above
# [27] = biological target: human Delta-like ligand 4 (DLL4), full-length, expressed on CHO cells (human) (UniProt Q9NR61); test: cell-based or functional assay
substance,measurement,setting,value
Fab VH3-23_IGHD2-21*01>3_IGHJ6*01 H100E/S108P/Y113G Y110T & V2-13_IGLJ2*01,ECL multispot signal (ratio to blank; column not labelled),[1],3.5
same,ECL multispot signal (ratio to blank; column not labelled),[2],2.3
Fab VH3-23_IGHD2-21*01>3_IGHJ6*01 H100E/S108P/Y113G Y109G & V2-13_IGLJ2*01,ECL multispot signal (ratio to blank; column not labelled),[3],2.7
Fab VH5-51_IGHD5-18*01>3_IGHJ4*01 G100K/G104T (H:KT) & V3-4_IGLJ1*01 G95A,ECL signal,[4],999
same,ECL signal,[5],1090
same,ECL signal,[6],707
Fab VH5-51_IGHD5-18*01>3_IGHJ4*01 G100K/G104T (H:KT) & V3-4_IGLJ1*01 S96A,ECL signal,[7],678
same,ECL signal,[8],684
same,ECL signal,[4],1120
same,ECL signal,[5],927
same,ECL signal,[6],715
Fab VH3-23_IGHD2-21*01>3_IGHJ6*01 H100E/S108P/Y113G Y110H & V2-13_IGLJ2*01,ECL multispot signal (ratio to blank; column not labelled),[1],3.7
same,ECL multispot signal (ratio to blank; column not labelled),[3],2.9
Fab VH5-51_IGHD5-18*01>3_IGHJ4*01 G100K/G104T (H:KT) & V3-4_IGLJ1*01 G97A,ECL signal,[7],642
same,ECL signal,[8],528
same,ECL signal,[4],1110
same,ECL signal,[5],1030
same,ECL signal,[6],660
Fab VH5-51_IGHD5-18*01>3_IGHJ4*01 G100K/G104T (H:KT) & V3-4_IGLJ1*01 M94A,ECL signal,[4],1150
same,ECL signal,[5],1090
Fab VH5-51_IGHD5-18*01>3_IGHJ4*01 G100K/G104T (H:KT) & V3-4_IGLJ1*01 Y93A,ECL signal,[4],1130
same,ECL signal,[5],1050
Fab VH5-51_IGHD5-18*01>3_IGHJ4*01 G100K/G104T W33A & V3-4_IGLJ1*01,ECL signal,[9],513
same,ECL signal,[10],921
same,ECL signal,[11],788
Fab VH3-23_IGHD2-21*01>3_IGHJ6*01 H100E/S108P/Y113G Y112R & V2-13_IGLJ2*01,ECL multispot value,[12],3.7
Fab VH5-51_IGHD5-18*01>3_IGHJ4*01 G100K/G104T (H:KT) & V3-4_IGLJ1*01 S99A,ECL signal,[4],909
same,ECL signal,[5],943
Fab VH3-23_IGHD2-21*01>3_IGHJ6*01 H100E/S108P/Y113G/Y111H & V2-13_IGLJ2*01,ECL signal/blank ratio,[12],2.9
same,ECL signal/blank ratio,[13],3
Fab VH1-46_IGHD6-6*01_IGHJ1*01 S102A/S103P/S104F/H111F (APFF) & L6_IGKJ1*01 S28T,ECL signal,[14],676
Fab VH5-51_IGHD5-18*01>3_IGHJ4*01 G100K/G104T (H:KT) & V3-4_IGLJ1*01 V91A,ECL signal,[5],1030
Fab VH5-51_IGHD5-18*01>3_IGHJ4*01 G100K/G104T (H:KT) & V3-4_IGLJ1*01 L92A,ECL signal,[7],695
same,ECL signal,[5],959
same,ECL signal,[6],693
Fab VH3-23_IGHD2-21*01>3_IGHJ6*01 H100E/S108P/Y113G Y110I & V2-13_IGLJ2*01,ECL multispot signal (ratio to blank; column not labelled),[2],2.5
Fab VH1-46_IGHD6-6*01_IGHJ1*01 S102A/S103P/S104F/H111F (APFF) & L6_IGKJ1*01 S28Q,ECL signal,[14],809
Fab VH1-46_IGHD6-6*01_IGHJ1*01 S102A/S103P/S104F/H111F I51V/N52L/S54T/G56H (APFF VLTH) & L6_IGKJ1*01 S28N/S30D/S31H S52L/A55S (NDH LS),"Notch1 luciferase reporter luminescence, T98G reporter cells + CHO-DLL4, 100 nM Fab, replicate 1",[15],2400
same,"Notch1 luciferase reporter luminescence, T98G reporter cells + CHO-DLL4, 100 nM Fab, replicate 2",[15],2280
same,"Notch1 luciferase reporter luminescence, T98G reporter cells + CHO-DLL4, 100 nM Fab, replicate 3",[15],2150
same,"Notch1 luciferase reporter luminescence, T98G reporter cells + CHO-DLL4, 100 nM Fab, replicate 4",[15],2170
Fab VH3-23_IGHD3-10*01>3_IGHJ6*01 Y111R & O12_IGKJ1*01,ECL signal/blank ratio,[16],2.9
same,ECL signal/blank ratio,[17],3.2
same,ECL signal/blank ratio,[18],3
IgG of VH1-46_IGHD6-6*01_IGHJ1*01 S102A/S103P/S104F/H111F I51V/N52L/S54T/G56H (APFF VLTH) & L6_IGKJ1*01 S28N/S30D/S31H S52L/A55S (NDH LS) (antibody),"Notch1 luciferase reporter luminescence, T98G reporter cells + CHO-DLL4, 0.8 nM IgG, replicate 1",[15],4440
same,"Notch1 luciferase reporter luminescence, T98G reporter cells + CHO-DLL4, 0.8 nM IgG, replicate 2",[15],4520
same,"Notch1 luciferase reporter luminescence, T98G reporter cells + CHO-DLL4, 0.8 nM IgG, replicate 3",[15],3900
same,"Notch1 luciferase reporter luminescence, T98G reporter cells + CHO-DLL4, 0.8 nM IgG, replicate 4",[15],3980
same,"Notch1 luciferase reporter luminescence, T98G reporter cells + CHO-DLL4, 4 nM IgG, replicate 1",[15],4260
same,"Notch1 luciferase reporter luminescence, T98G reporter cells + CHO-DLL4, 4 nM IgG, replicate 2",[15],3860
same,"Notch1 luciferase reporter luminescence, T98G reporter cells + CHO-DLL4, 4 nM IgG, replicate 3",[15],3950
same,"Notch1 luciferase reporter luminescence, T98G reporter cells + CHO-DLL4, 4 nM IgG, replicate 4",[15],3760
same,"Notch1 luciferase reporter luminescence, T98G reporter cells + CHO-DLL4, 20 nM IgG, replicate 1",[15],1250
same,"Notch1 luciferase reporter luminescence, T98G reporter cells + CHO-DLL4, 20 nM IgG, replicate 2",[15],1270
same,"Notch1 luciferase reporter luminescence, T98G reporter cells + CHO-DLL4, 20 nM IgG, replicate 3",[15],1170
same,"Notch1 luciferase reporter luminescence, T98G reporter cells + CHO-DLL4, 20 nM IgG, replicate 4",[15],1190
same,"Notch1 luciferase reporter luminescence, T98G reporter cells + CHO-DLL4, 100 nM IgG, replicate 1",[15],757
same,"Notch1 luciferase reporter luminescence, T98G reporter cells + CHO-DLL4, 100 nM IgG, replicate 2",[15],807
same,"Notch1 luciferase reporter luminescence, T98G reporter cells + CHO-DLL4, 100 nM IgG, replicate 3",[15],678
same,"Notch1 luciferase reporter luminescence, T98G reporter cells + CHO-DLL4, 100 nM IgG, replicate 4",[15],688
Fab VH3-23_IGHD2-21*01>3_IGHJ6*01 H100E/S108P/Y113G Y114N & V2-13_IGLJ2*01,ECL multispot value,[13],3.5
Fab VH3-23_IGHD3-10*01>3_IGHJ6*01 Y110R & O12_IGKJ1*01,ECL signal/blank ratio,[16],3
same,ECL signal/blank ratio,[17],3
same,ECL signal/blank ratio,[19],2.5
same,ECL signal/blank ratio,[18],2.8
Fab VH3-23_IGHD3-10*01>3_IGHJ6*01 Y112P & O12_IGKJ1*01,ECL signal/blank ratio,[20],1
same,ECL signal/blank ratio,[21],1.1
same,ECL signal/blank ratio,[22],0.9
same,ECL signal/blank ratio,[23],1.1
same,ECL signal/blank ratio,[24],0.8
same,ECL signal/blank ratio,[25],1.1
same,ECL signal/blank ratio,[26],1.4
Fab VH1-46_IGHD6-6*01_IGHJ1*01 S102A/S103P/S104F/H111F I51V/N52L/S54T/G56H & L6_IGKJ1*01 S28N/S30D/S31H S52L/A55S,"Notch1 luciferase reporter luminescence, T98G reporter cells + CHO-DLL4, 0.8 nM Fab, replicate 1",[27],4740
same,"Notch1 luciferase reporter luminescence, T98G reporter cells + CHO-DLL4, 0.8 nM Fab, replicate 2",[27],4890
same,"Notch1 luciferase reporter luminescence, T98G reporter cells + CHO-DLL4, 0.8 nM Fab, replicate 3",[27],3820
same,"Notch1 luciferase reporter luminescence, T98G reporter cells + CHO-DLL4, 0.8 nM Fab, replicate 4",[27],4080
same,"Notch1 luciferase reporter luminescence, T98G reporter cells + CHO-DLL4, 4 nM Fab, replicate 1",[27],4840
same,"Notch1 luciferase reporter luminescence, T98G reporter cells + CHO-DLL4, 4 nM Fab, replicate 2",[27],4880
same,"Notch1 luciferase reporter luminescence, T98G reporter cells + CHO-DLL4, 4 nM Fab, replicate 3",[27],4250
same,"Notch1 luciferase reporter luminescence, T98G reporter cells + CHO-DLL4, 4 nM Fab, replicate 4",[27],4670
same,"Notch1 luciferase reporter luminescence, T98G reporter cells + CHO-DLL4, 20 nM Fab, replicate 1",[27],4380
same,"Notch1 luciferase reporter luminescence, T98G reporter cells + CHO-DLL4, 20 nM Fab, replicate 2",[27],4480
same,"Notch1 luciferase reporter luminescence, T98G reporter cells + CHO-DLL4, 20 nM Fab, replicate 3",[27],3960
same,"Notch1 luciferase reporter luminescence, T98G reporter cells + CHO-DLL4, 20 nM Fab, replicate 4",[27],3990
